Test results published in paper PMC11081511.

Tested on: Phloem protein 2 (PP2), 26 kDa major variant (cucumber)
Test: northwestern
Conditions: Northwestern: 10 mM Tris-HCl pH 7.5, 1 mM EDTA, 100 mM NaCl, 0.02% Ficoll 400, 0.02% PVP-40, 1% BSA, 5 pmol probe, 50 ug/ml yeast tRNA, renaturation 25 C. …

Q: For CY1 D-RNA, which binding signal (fold vs PEMV2) is on record?
A: 10

Q: With CY1 full-length RNA as the substance, how does the binding signal (fold vs PEMV2) read?
A: 7.5

Q: Which binding signal (reference for fold values) does the source give for PEMV2 RNA here?
A: 1
